In PMC3476531, “Synergy of Peptide and Sugar in O-GlcNAcase Substrate Recognition” (Chemistry & Biology, 2012):
*: point of attachment. βGlcNAc = CC(=O)N[C@@H]1[C@@H](O)[C@H](O)[C@@H](CO)O[C@H]1*

Columns and labels:
[1] = biological target: T1, human O-GlcNAcase (hOGA) Y69Q (human) (UniProt O60502)
T1 sequence: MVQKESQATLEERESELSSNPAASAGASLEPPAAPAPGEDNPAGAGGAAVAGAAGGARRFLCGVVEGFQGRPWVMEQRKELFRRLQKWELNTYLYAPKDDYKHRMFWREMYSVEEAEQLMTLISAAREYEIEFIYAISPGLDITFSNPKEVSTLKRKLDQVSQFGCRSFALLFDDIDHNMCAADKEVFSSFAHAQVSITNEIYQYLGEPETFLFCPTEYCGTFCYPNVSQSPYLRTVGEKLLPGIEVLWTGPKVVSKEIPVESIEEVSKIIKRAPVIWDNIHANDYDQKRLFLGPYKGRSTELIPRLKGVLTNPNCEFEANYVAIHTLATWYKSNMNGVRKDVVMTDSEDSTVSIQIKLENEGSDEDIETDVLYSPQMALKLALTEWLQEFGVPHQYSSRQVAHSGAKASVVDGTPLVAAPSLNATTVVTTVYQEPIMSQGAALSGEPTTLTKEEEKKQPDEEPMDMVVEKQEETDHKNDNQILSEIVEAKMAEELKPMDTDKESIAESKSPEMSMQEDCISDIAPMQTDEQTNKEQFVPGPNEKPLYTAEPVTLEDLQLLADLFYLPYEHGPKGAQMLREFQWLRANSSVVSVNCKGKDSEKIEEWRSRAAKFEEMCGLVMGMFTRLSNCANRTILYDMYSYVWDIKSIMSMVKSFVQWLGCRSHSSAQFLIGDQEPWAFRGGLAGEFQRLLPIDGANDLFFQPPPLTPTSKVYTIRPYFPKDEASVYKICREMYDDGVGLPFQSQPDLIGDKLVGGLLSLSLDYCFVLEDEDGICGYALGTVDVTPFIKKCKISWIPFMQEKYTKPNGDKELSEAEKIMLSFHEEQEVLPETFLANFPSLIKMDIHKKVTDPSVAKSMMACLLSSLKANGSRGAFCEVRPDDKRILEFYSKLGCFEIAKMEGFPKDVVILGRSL

[2] = biological target: T2, human O-GlcNAcase (hOGA), wild-type (human) (UniProt O60502)
T2 sequence: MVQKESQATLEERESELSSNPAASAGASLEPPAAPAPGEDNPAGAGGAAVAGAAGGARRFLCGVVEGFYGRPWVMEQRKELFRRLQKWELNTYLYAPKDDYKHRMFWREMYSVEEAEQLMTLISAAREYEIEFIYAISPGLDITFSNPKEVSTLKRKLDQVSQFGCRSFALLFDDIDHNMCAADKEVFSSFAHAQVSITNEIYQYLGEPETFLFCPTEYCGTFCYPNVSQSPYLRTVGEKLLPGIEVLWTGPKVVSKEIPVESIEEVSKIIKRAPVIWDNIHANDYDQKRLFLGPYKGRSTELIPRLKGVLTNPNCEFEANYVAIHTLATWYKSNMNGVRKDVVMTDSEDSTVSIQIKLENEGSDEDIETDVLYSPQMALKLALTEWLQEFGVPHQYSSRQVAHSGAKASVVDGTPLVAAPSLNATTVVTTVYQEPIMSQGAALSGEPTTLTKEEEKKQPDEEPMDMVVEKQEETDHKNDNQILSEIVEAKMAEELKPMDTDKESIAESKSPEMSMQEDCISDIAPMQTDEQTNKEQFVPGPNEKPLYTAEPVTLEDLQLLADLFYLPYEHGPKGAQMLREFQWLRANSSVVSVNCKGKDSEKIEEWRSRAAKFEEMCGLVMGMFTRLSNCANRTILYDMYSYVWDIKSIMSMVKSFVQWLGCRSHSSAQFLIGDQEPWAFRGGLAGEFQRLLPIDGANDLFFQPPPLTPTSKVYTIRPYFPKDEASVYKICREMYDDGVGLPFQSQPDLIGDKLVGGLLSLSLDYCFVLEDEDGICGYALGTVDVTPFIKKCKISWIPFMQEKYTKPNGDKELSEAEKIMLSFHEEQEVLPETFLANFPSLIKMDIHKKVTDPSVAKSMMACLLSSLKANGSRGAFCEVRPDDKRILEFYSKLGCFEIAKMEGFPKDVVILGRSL

B1: TAB1 peptide PVSVPYS(O-GlcNAc)SAQSTS (peptide)
peptide: Ac-PVSVPYS(βGlcNAc)SAQSTS-NH2
SMILES: CC(=O)N[C@H]1[C@H](OC[C@H](NC(=O)[C@H](Cc2ccc(O)cc2)NC(=O)[C@@H]2CCCN2C(=O)[C@@H](NC(=O)[C@H](CO)NC(=O)[C@@H](NC(=O)[C@@H]2CCCN2C(C)=O)C(C)C)C(C)C)C(=O)N[C@@H](CO)C(=O)N[C@@H](C)C(=O)N[C@@H](CCC(N)=O)C(=O)N[C@@H](CO)C(=O)N[C@H](C(=O)N[C@@H](CO)C(N)=O)[C@@H](C)O)O[C@H](CO)[C@@H](O)[C@@H]1O
B1 was tested, and the KM of the glycopeptide substrate (substrate competition assay with 4MU-GlcNAc as reporter substrate) [1] was 3600 µM and the KM of the glycopeptide substrate (substrate competition assay with 4MU-GlcNAc as reporter substrate) [2] was 940 µM.
